B1: FGF-7: human recombinant FGF-7 (protein, UniProt P21781 32-194, looked up)
Fibroblast growth factor 7: CNDMTPEQMATNVNCSSPERHTRSYDYMEGGDIRVRRLFCRTQWYLRIDKRGKVKGTQEMKNNYNIMEIRTVAVGIVAIKGVESEFYLAMNKEGKLYAKKECNEDCNFKELILENHYNTYASAKWTHNGGEMFVALNQKGIPVRGKKTKKEQKTAHFLPMAIT
B2: FGF-10: human recombinant FGF-10 (protein, UniProt O15520 38-208, looked up)
Fibroblast growth factor 10: QALGQDMVSPEATNSSSSSFSSPSSAGRHVRSYNHLQGDVRWRKLFSFTKYFLKIEKNGKVSGTKKENCPYSILEITSVEIGVVAVKAINSNYYLAMNKKGKLYGSKEFNNDCKLKERIEENGYNTYASFNWQHNGRQMYVALNGKGAPRRGQKTRRKNTSAHFLPMVVHS
B3: FGF-18: human recombinant FGF-18 (protein, UniProt O76093 28-207, looked up)
Fibroblast growth factor 18: EENVDFRIHVENQTRARDDVSRKQLRLYQLYSRTSGKHIQVLGRRISARGEDGDKYAQLLVETDTFGSQVRIKGKETEFYLCMNRKGKLVGKPDGTSKECVFIEKVLENNYTALMSAKYSGWYVGFTKKGRPRKGPKTRENQQDVHFMKRYPKGQPELQKPFKYTTVTKRSRRIRPTHPA

Test system: CD34^+α6^+ HFSCs
Test: 3D-ECM culture of mouse keratinocytes, CD34+α6+ HFSCs quantified by flow cytometry
Assay type: cell-based
Conditions: for percentage of CD34+α6+ HFSCs: vs untreated 3C; for normalized CD34+α6+ content of cultures: day 14 Matrigel; for growth/expansion of CD34+α6+ HFSCs when FGF-2 or VEGF-164 is replaced: in the 3C, YF and/or YV media, compared with FGF-2 / VEGF-164
Experimental: Keratinocytes were isolated from back skin of mice by incubating skin pieces in 0.8% Trypsin (Gibco) for 50 min at 37° C. After separating the epidermis from the underlying dermis, cells were homogenized, filtered through 70 μm and 45 μm cell strainers (BD Biosciences) and pelleted at 900 rpm for 3 min. For 2D culture of epidermis-derived cells, tissue culture petri dished were coated with a mixture of collagen I (30 μg/ml)+fibronectin (10 μg/ml; both from Millipore) in MEM for 1 h at 37° C. prior to plating of cells. Epidermis-derived cells were suspended in KGM or in FAD medium, and seeded on the coated plastic dishes. Medium was exchanged the next day after initial seeding and thereafter every second day. […] For 3D culture of HFSCs, 8×10^4 cells were resuspended in 40 μl ice-cold 1:1 KGM:Matrigel mixture that was dispensed as a droplet in 24-well cell culture dishes. The suspension was allowed to solidify for 15 min after which it was overlaid with 500 μl of stem cell media. The following media compositions were used: KGM basal medium, medium Y (KGM, 5 μM Y27632, 10 ng/ml human recombinant EGF), medium Y-E (KGM, 5 μM Y27632), medium YV (KGM, 5 μM Y27632, 10 ng/ml human recombinant EGF, 20 ng/ml mouse recombinant VEGF), medium YF (KGM, 5 μM Y27632, 10 ng/ml human recombinant EGF, 20 ng/ml human recombinant FGF-2), 3C (KGM, 5 μM Y27632, 10 ng/ml human recombinant EGF, 20 ng/ml mouse recombinant VEGF, 20 ng/ml human recombinant FGF-2), and 3C-E (KGM, 5 μM Y27632, 20 ng/ml mouse recombinant VEGF, 20 ng/ml human recombinant FGF-2).
For cell passaging and flow cytometry cultured hair follicle stem cells were extracted from Matrigel by mechanical homogenization and incubation in 0.5% Trypsin (Gibco), 0.5 mM EDTA, PBS or Accutase (Gibco) for 10 min at 37° C.
Single cell suspensions prepared from murine back skin (described above) or from cultured cells were rinsed once with KGM and stained with fluorescently labeled antibodies for 30 min on ice. After two washes with FACS Buffer (2% FCS, 2 mM EDTA, PBS) cells were measured in a BD FACS Canto II and data was analyzed using FlowJo software version 10. For purification of cell populations (cell sorting) a BD FACS Aria II or a BD FACS Aria Fusion were used. Cells were sorted in KGM medium at 4′C. Expression of cell surface markers was analyzed on live cells after exclusion of cell doublets and dead cells, respectively.

[1] = cyclopamine 10 μM for 5 days added to 3C cultures
[2] = 3C conditions (Y27632+EGF+FGF+VEGF), vs VEGF-164 or FGF-2 set to 1
[3] = YF conditions (Y27632+EGF+FGF), vs FGF-2 set to 1

Molecule	normalized CD34+α6+ content of cultures [2]	normalized CD34+α6+ content of cultures [3]	growth/expansion of CD34+α6+ HFSCs when FGF-2 or VEGF-164 is replaced	also measured
COc1cc(-c2cc(-c3cccc(O)c3)cnc2N)cc(OC)c1OC [K02288, 3-[6-amino-5-(3,4,5-trimethoxyphenyl)pyridin-3-yl]phenol, reference compound]				percentage of CD34+α6+ HFSCs (3C conditions 14 days with K02288 10 nM): decrease
C[C@@H](N)[C@H]1CC[C@H](C(=O)Nc2ccncc2)CC1.Cl.Cl.O [Y27632, (R)-(+)-trans-4-(1-aminoethyl)-N-(4-Pyridyl)cyclohexanecarboxamide dihydrochloride monohydrate, reference compound]				requirement of ROCK inhibitor for HFSC growth and expansion (3C conditions, from the beginning of the culturing time): essential
CC1=C2C[C@H]3[C@@H](CC=C4C[C@@H](O)CC[C@@]43C)[C@@H]2CC[C@]12O[C@@H]1C[C@H](C)CN[C@H]1[C@H]2C [cyclopamine, (2′R,3S,3′R,3′aS,6'S,6aS,6bS,7′aR,11aS,11bR)-1,2,3,3′a,4,4′,5′,6,6′,6a,6b,7,7′,7′a,8,11,11a,11b-Octadecahydro-3′,6′,10,11b-tetramethylspiro[9H-benzo[a]fluorene-9,2′(3′H)-furo[3,2-b]pyridin]-3-ol, reference compound]				proportion of HFSCs in the cultured cell mixture (3C conditions 9 days, then cyclopamine 10 μM for 5 days, flow cytometry day 14): up to 93.6%; total cell numbers [1]: decrease; percentage of CD34+α6+ HFSCs [1]: elevated
B1	perform equally well	perform equally well	Comparable	
B2	perform equally well	perform equally well	Comparable	
B3			Comparable	

From patent publication US20180282690A1, “METHOD AND CULTURE MEDIUM FOR EX VIVO CULTURING OF EPIDERMIS-DERIVED STEM CELLS” (Max-Planck-Gesellschaft zur Förderung der Wissenchaften e.V., priority 2015, published 2018)
